Test results as given in patent US20210040185A1 (ATRECA, published 2021).
Positions count from the first letter of the chain named.

B1: NVS49-L2A1 (antibody, V domains shown)
VH: HVQLVQSGGGVKKIGAAVRISCEVTGYKFMDQLINWVRQAPGQGLEWMGWMNPTYGQVNYSWRFEGRVTMTRDMDTETAFMELRGLRVDDTAVYYCARGPSGENYPFHYWGQGVRVVVSS
VL: ASALTQPASMSASPGQSVTISCSGTRHIISAWFQQYPGKPPKLIIFDDDKRPSGVPSRFSASRPGDTASLTISNVQPEDEATYICNTYEFFGGGTRLTVL
B2: L2A1_H58NQ (antibody, V domains shown)
VH: B1 VH with N59Q
VL: B1 VL
B3: L2A1_H58NS (antibody, V domains shown)
VH: B1 VH with N59S
VL: B1 VL
B4: L2A1_H58ND (antibody, V domains shown)
VH: B1 VH with N59D
VL: B1 VL
B5: L2A1_H60SN (antibody, V domains shown)
VH: B1 VH with S61N
VL: B1 VL
B6: L2A1_H58NA (antibody, V domains shown)
VH: B1 VH with N59A
VL: B1 VL
B7: L2A1_H60SA (antibody, V domains shown)
VH: B1 VH with S61A
VL: B1 VL

Biological target: HIV-1 envelope (Env) of virus REJO4541.67 (HIV-1)
Assay: cell-based or functional assay

Row | Binder | IC50 of viral neutralization (Env.IMC.LucR virus, TZM-BL reporter cells)
1 | B1 | 0.022 µg/mL
2 | B2 | 0.025 µg/mL
3 | B3 | 0.206 µg/mL
4 | B4 | 0.212 µg/mL
5 | B5 | 0.121 µg/mL
6 | B6 | 0.104 µg/mL
7 | B7 | 0.105 µg/mL

Biological target: HIV-1 envelope (Env) of virus AC10.0.29 (HIV-1)
Assay: cell-based or functional assay

Row | Binder | IC50 of viral neutralization (Env.IMC.LucR virus, TZM-BL reporter cells)
8 | B1 | 0.306 µg/mL
9 | B2 | > 50 µg/mL
10 | B3 | 0.091 µg/mL
11 | B4 | > 50 µg/mL
12 | B5 | 0.087 µg/mL
13 | B6 | 0.098 µg/mL
14 | B7 | 0.072 µg/mL

Biological target: HIV-1 envelope (Env) of virus WITO4160.33 (HIV-1)
Assay: cell-based or functional assay

Row | Binder | IC50 of viral neutralization (Env.IMC.LucR virus, TZM-BL reporter cells)
15 | B1 | 0.213 µg/mL
16 | B2 | 0.222 µg/mL
17 | B3 | 0.182 µg/mL
18 | B4 | 0.65 µg/mL
19 | B5 | 0.212 µg/mL
20 | B6 | 0.259 µg/mL
21 | B7 | 0.148 µg/mL

Biological target: HIV-1 envelope (Env) of virus CNE20 (HIV-1)
Assay: cell-based or functional assay

Row | Binder | IC50 of viral neutralization (Env.IMC.LucR virus, TZM-BL reporter cells)
22 | B1 | 0.05 µg/mL
23 | B2 | > 50 µg/mL
24 | B3 | > 50 µg/mL
25 | B4 | > 50 µg/mL
26 | B5 | 0.317 µg/mL
27 | B6 | > 50 µg/mL
28 | B7 | 0.17 µg/mL

Biological target: HIV-1 envelope (Env) of virus DU172.17 (HIV-1)
Assay: cell-based or functional assay

Row | Binder | IC50 of viral neutralization (Env.IMC.LucR virus, TZM-BL reporter cells)
29 | B1 | 0.128 µg/mL
30 | B2 | 2.27 µg/mL
31 | B3 | 0.102 µg/mL
32 | B4 | 20.9 µg/mL
33 | B5 | 0.044 µg/mL
34 | B6 | 0.218 µg/mL
35 | B7 | 0.056 µg/mL

Biological target: HIV-1 envelope (Env) of virus CAP45.2.00.G3 (HIV-1)
Assay: cell-based or functional assay

Row | Binder | IC50 of viral neutralization (Env.IMC.LucR virus, TZM-BL reporter cells)
36 | B1 | 0.069 µg/mL
37 | B3 | 0.04 µg/mL
38 | B5 | 0.032 µg/mL
39 | B6 | 0.05 µg/mL
40 | B7 | 0.039 µg/mL
